What was measured:
[1] = biological target: human mesothelin (MSLN) on the cell surface (human) (UniProt Q13421); assay: FACS on MSLN stable cell line (#2), left panels; sheet note: 1st Ab 1 µg (1st assay), 2nd Ab anti-human Fc antibody FITC
[2] = biological target: human mesothelin (MSLN) on the cell surface (human) (UniProt Q13421); assay: FACS on MSLN stable cell line (#2), right panels; sheet note: 1st Ab 0.36 µg (2nd assay), 2nd Ab anti-human Fc antibody FITC
[3] = biological target: human mesothelin (MSLN) on the cell surface (human) (UniProt Q13421); assay: FACS on MiaPaCa-MSLN #2 cells, upper histogram and table
[4] = biological target: human mesothelin (MSLN) on the cell surface (human) (UniProt Q13421); assay: FACS on MiaPaCa-MSLN #2 cells, upper histogram and table; negative control
[5] = biological target: human mesothelin (MSLN) on the cell surface (human) (UniProt Q13421); assay: FACS on MSLN stable cell line (#2), left panels; negative control; sheet note: 1st Ab 1 µg (1st assay), 2nd Ab anti-human Fc antibody FITC
[6] = biological target: human mesothelin (MSLN) on the cell surface (human) (UniProt Q13421); assay: FACS on MSLN stable cell line (#2), right panels; negative control; sheet note: 1st Ab 0.36 µg (2nd assay), 2nd Ab anti-human Fc antibody FITC

human mesothelin (MSLN) on the cell surface (human), sequence (Q13421 other isoform, or with tags, fused parts or gaps limits assumed): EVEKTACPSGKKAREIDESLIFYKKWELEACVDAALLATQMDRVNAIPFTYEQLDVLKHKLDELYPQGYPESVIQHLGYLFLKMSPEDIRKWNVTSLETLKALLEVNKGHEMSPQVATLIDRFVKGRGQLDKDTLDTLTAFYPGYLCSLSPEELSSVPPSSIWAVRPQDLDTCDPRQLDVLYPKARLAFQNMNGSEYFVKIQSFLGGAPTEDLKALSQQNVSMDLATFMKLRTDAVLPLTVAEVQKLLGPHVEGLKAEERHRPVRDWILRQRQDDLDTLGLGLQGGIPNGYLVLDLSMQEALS

Substance | Mean, FL1-H [1] | Mean, FL1-H [2] | Mean, FL2-H [3] | Mean, FL2-H [4] | Mean, FL1-H [5] | Mean, FL1-H [6]
Morab (antibody) | 515 | 263 | 3190 |  |  | 
hIgG (antibody) |  |  |  | 8.6 | 3.36 | 4.81

— patent US20180346588A1
